Laboratory results as given in patent publication US20250295802A1, “HER3 ANTIBODY-DRUG CONJUGATE AND USE THEREOF” (DUALITY BIOLOGICS (SUZHOU) CO., LTD., priority 2022, published 2025).

Assays:
[1] = target: HER3 on tumor cell lines (NCI-N87, MDA-MB-468, MDA-MB-453, HCC1569 and other cells with different HER3 surface levels) (UniProt P21860); test: cell-based or functional assay
[2] = target: HER3 on tumor cell lines (NCI-N87, MDA-MB-468, MDA-MB-453, HCC1569 and other cells with different HER3 … (UniProt P21860 20-1342, limits assumed)); test: cell-based or functional assay
[3] = target: T1, human HER3-huFc (human, UniProt P21860 20-643); test: ELISA, 0 days at 40 °C
T1 construct: also called huHER3; not shown: human Fc (huFc)
Experimental: (§1) Antibody stability test: the purified antibody at 5 mg/mL was stored at 4° C. as regular practice, incubated at 40° C. for 7 days and 14 days for heat stability evaluation, transferred to a glycine solution at pH 3.5 for regeneration, and stored for 2, 4 and 6 h for acid stability evaluation, or subjected to repeated freeze-thaw treatments for 4 or 6 cycles for freeze-thaw stability evaluation. Aggregation was measured by SEC-HPLC, and binding affinity was determined by ELISA.
(§2) The chimeric antibody 3F8 was subjected to parallel assay.

[4] = target: T1, human HER3-huFc; test: ELISA after 7 days at 40 °C
Experimental: as §1, §2

[5] = target: T1, human HER3-huFc; test: ELISA, 0 freeze-thaw cycles
[6] = target: T1, human HER3-huFc; test: ELISA after 14 days at 40 °C
Experimental: as §1, §2

[7] = target: T1, human HER3-huFc; test: ELISA after 3 freeze-thaw cycles
[8] = target: T1, human HER3-huFc; test: ELISA after 5 freeze-thaw cycles
[9] = target: T1, human HER3-huFc; test: ELISA after 0 h of incubation at pH 3.5
Experimental: as §1
(§3) EC50 was determined by ELISA.

[10] = target: T1, human HER3-huFc; test: ELISA after 2 h of incubation at pH 3.5
Experimental: as §1, §3

[11] = target: T1, human HER3-huFc; test: ELISA after 4 h of incubation at pH 3.5
Experimental: as §1, §3

[12] = target: T1, human HER3-huFc; test: ELISA after 6 h of incubation at pH 3.5
Experimental: as §1, §3

[13] = target: T2, His-HER3 (UniProt P21860 20-643, limits assumed); test: SPR, Biacore T200, antibody captured on protein A chip, His-HER3 as analyte
T2 construct: Analyte of the Biacore assay; not shown: His tag
Experimental: Affinity assay by surface plasmon resonance (SPR): antibody kinetics and affinity were determined using Biacore T200. Briefly, the recombinant human HER3 antibody was immobilized on a protein A chip (GE, Cat. 29-1275-5).
The binding affinity of humanized 3F8 (hu3F8) and chimeric 3F8. Binding kinetics of 3 humanized 3F8 clones and chimeric 3F8 were determined by Biacore. Three humanized 3F8 clones (clone 1, clone 2 and clone 3) had different heavy chains and one identical light chain. Clone 1, clone 2, and clone 3 corresponded to hu3F8-1, hu3F8-2, and hu3F8-3, respectively.

Q: With Reference ADC-1 (U3-1402) (antibody) as the molecule, how does the HCC1569 IC50 (nM), inhibition of in vitro proliferation (CTG, 6 days) [1] read?
A: The HCC1569 IC50 (nM), inhibition of in vitro proliferation (CTG, 6 days) was 40.7 nM.

Q: And the MDA-MB-453 IC50 (nM), inhibition of in vitro proliferation (CTG, 6 days) [1]?
A: The MDA-MB-453 IC50 (nM), inhibition of in vitro proliferation (CTG, 6 days) was 9.62 nM.

B1: antibody-drug conjugate ADC-1-X1 (hu3F8-2-X1) (antibody, human IgG1, kappa, V domains shown)
VH: QVQLQESGPGLVKPSETLSLTCTVSGYSITSAYYWNWIRQPFGKGLEWMGYISYDGRNNFNPSLKNRVTISRDTSKNQFSLKLSSVTAADTAVYYCARDGDYDYFDYWGQGTTVTVSS
VL: DIQMTQSPSSLSASVGDRVTITCRASQDISNYLNWYQQKPGKAPKLLIYYTSILHSGVPSRFSGSGSGTDYTFTISSLQPEDIATYFCQQGDTLPPTFGGGTKLEIKR
modifications: linker-payload X1 coupled after TCEP reduction; positions not given; linker-payload X1 coupled after TCEP reduction; positions not given; DAR 7.12 for the whole antibody
Q: B1 was tested. Which “HCC1569 IC50 (nM), inhibition of in vitro proliferation (CTG, 6 days)” value [2] did it give?
A: The value was 0.115 nM.

Q: And the “MDA-MB-453 IC50 (nM), inhibition of in vitro proliferation (CTG, 6 days)” value [2]?
A: The value was 0.042 nM.

B2: antibody-drug conjugate ADC-1-X2 (hu3F8-2-X2) (antibody, human IgG1, kappa, V domains shown)
VH: QVQLQESGPGLVKPSETLSLTCTVSGYSITSAYYWNWIRQPFGKGLEWMGYISYDGRNNFNPSLKNRVTISRDTSKNQFSLKLSSVTAADTAVYYCARDGDYDYFDYWGQGTTVTVSS
VL: DIQMTQSPSSLSASVGDRVTITCRASQDISNYLNWYQQKPGKAPKLLIYYTSILHSGVPSRFSGSGSGTDYTFTISSLQPEDIATYFCQQGDTLPPTFGGGTKLEIKR
modifications: linker-payload X2 coupled after TCEP reduction; positions not given; linker-payload X2 coupled after TCEP reduction; positions not given; DAR 7.53 for the whole antibody
Q: With B2 as the molecule, how does the “HCC1569 IC50 (nM), inhibition of in vitro proliferation (CTG, 6 days)” value [2] read?
A: Its value is 5.17 nM.

Q: What about the “MDA-MB-453 IC50 (nM), inhibition of in vitro proliferation (CTG, 6 days)” value [2] of the same molecule?
A: The value was 0.094 nM.

B3: humanized 3F8 antibody hu3F8-2 (antibody, human IgG1, kappa, V domains shown)
VH: QVQLQESGPGLVKPSETLSLTCTVSGYSITSAYYWNWIRQPFGKGLEWMGYISYDGRNNFNPSLKNRVTISRDTSKNQFSLKLSSVTAADTAVYYCARDGDYDYFDYWGQGTTVTVSS
VL: DIQMTQSPSSLSASVGDRVTITCRASQDISNYLNWYQQKPGKAPKLLIYYTSILHSGVPSRFSGSGSGTDYTFTISSLQPEDIATYFCQQGDTLPPTFGGGTKLEIKR
notes: also called Clone 2; clone-2
Q: B3 was tested. Which EC50 [3] did it give?
A: The EC50 was 0.0454 µg/mL.

Q: What about the EC50 [4] of the same molecule?
A: Its EC50 is 0.0481 µg/mL.

Q: And the EC50 [5]?
A: Its EC50 is 0.0425 µg/mL.

Q: And the EC50 [6]?
A: Its EC50 is 0.052 µg/mL.

Q: What about the EC50 [7] of the same molecule?
A: The EC50 was 0.0467 µg/mL.

Q: And the EC50 [8]?
A: The EC50 was 0.0438 µg/mL.

Q: What about the EC50 [9] of the same molecule?
A: The EC50 was 0.045 µg/mL.

Q: What about the EC50 [10] of the same molecule?
A: The EC50 was 0.0483 µg/mL.

Q: And the EC50 [11]?
A: Its EC50 is 0.0445 µg/mL.

Q: What about the EC50 [12] of the same molecule?
A: The EC50 was 0.0412 µg/mL.

Q: And the Kd [13]?
A: Its Kd is 0.492 nM.

Q: What about the koff [13] of the same molecule?
A: Its koff is 0.000328 s⁻¹.

Q: And the kon [13]?
A: Its kon is 666000 M⁻¹ s⁻¹.

B4: humanized 3F8 antibody hu3F8-3 (antibody, human IgG1, kappa, V domains shown)
VH: QVQLQESGPGLVKPSETLSLTCTVSGYSITSAYYWNWIRQPFGKGLEWMGYISYDGRNNFNPSLKNRVSISRDTSKNQFSLKLSSVTAADTATYYCARDGDYDYFDYWGQGTTVTVSS
VL: DIQMTQSPSSLSASVGDRVTITCRASQDISNYLNWYQQKPGKAPKLLIYYTSILHSGVPSRFSGSGSGTDYTFTISSLQPEDIATYFCQQGDTLPPTFGGGTKLEIKR
notes: also called Clone 3; clone-3
Q: How did the EC50 [3] turn out when B4 was run?
A: The EC50 was 0.0424 µg/mL.

Q: What about the EC50 [4] of the same molecule?
A: Its EC50 is 0.047 µg/mL.

Q: What about the EC50 [5] of the same molecule?
A: The EC50 was 0.0423 µg/mL.

Q: And the EC50 [6]?
A: Its EC50 is 0.0413 µg/mL.

Q: And the EC50 [7]?
A: The EC50 was 0.0374 µg/mL.

Q: And the EC50 [8]?
A: Its EC50 is 0.0336 µg/mL.

Q: What about the EC50 [9] of the same molecule?
A: Its EC50 is 0.0387 µg/mL.

Q: What about the EC50 [10] of the same molecule?
A: The EC50 was 0.0417 µg/mL.

Q: What about the EC50 [11] of the same molecule?
A: The EC50 was 0.0394 µg/mL.

Q: And the EC50 [12]?
A: The EC50 was 0.0381 µg/mL.

Q: And the Kd [13]?
A: Its Kd is 0.54 nM.

Q: And the koff [13]?
A: Its koff is 0.000348 s⁻¹.

Q: What about the kon [13] of the same molecule?
A: The kon was 644000 M⁻¹ s⁻¹.

B5: chimeric 3F8 antibody (antibody, human IgG1, V domains shown)
VH: DVQLQESGPGLVKPSQSLSLTCSVTGYSITSAYYWNWIRQFPGDKLEWMGYISYDGRNNFNPSLKNRISITRDTSKNQFFLKLNSVTSGDTATYYCARDGDYDYFDYWGQGTTLTVSS
VL: DIQMTQTTSSLSASLGDRVTISCRASQDISNYLNWYQQKPDGTFKLLIYYTSILHSGVPSRFSGSGSGTDYSLTISNLEQEDIATYFCQQGDTLPPTFGAGTKLELK
notes: also called ch3F8; Chimeric antibody
Q: With B5 as the molecule, how does the EC50 [3] read?
A: Its EC50 is 0.0474 µg/mL.

Q: What about the EC50 [5] of the same molecule?
A: The EC50 was 0.0471 µg/mL.

Q: What about the Kd [13] of the same molecule?
A: Its Kd is 0.624 nM.

Q: What about the koff [13] of the same molecule?
A: The koff was 0.000391 s⁻¹.

Q: What about the kon [13] of the same molecule?
A: The kon was 628000 M⁻¹ s⁻¹.
